Experimental data from US9526786B2, “Thermostabilization of proteins” (The Trustee of Columbia University in the City of New York, priority 2007, dated 2016).
Where a chain is given by its changes, count along the chain named. Names may count otherwise.

Tests used:
CocE [1] = molecular target: T1, CocE (Rhodococcus sp., UniProt Q9L9D7); format: biochemical, Rhodococcus sp. MB 1; conditions: for stabilization of CocE at 37° C., lower concentrations: cocaine lower than 62.5 μM, others below 125 μM
T1 construct: 6xHis (C); made in house; host or cells: E. coli BL-21 Gold (DE3), pET-22b(+)
T1 sequence (Q9L9D7 1-574): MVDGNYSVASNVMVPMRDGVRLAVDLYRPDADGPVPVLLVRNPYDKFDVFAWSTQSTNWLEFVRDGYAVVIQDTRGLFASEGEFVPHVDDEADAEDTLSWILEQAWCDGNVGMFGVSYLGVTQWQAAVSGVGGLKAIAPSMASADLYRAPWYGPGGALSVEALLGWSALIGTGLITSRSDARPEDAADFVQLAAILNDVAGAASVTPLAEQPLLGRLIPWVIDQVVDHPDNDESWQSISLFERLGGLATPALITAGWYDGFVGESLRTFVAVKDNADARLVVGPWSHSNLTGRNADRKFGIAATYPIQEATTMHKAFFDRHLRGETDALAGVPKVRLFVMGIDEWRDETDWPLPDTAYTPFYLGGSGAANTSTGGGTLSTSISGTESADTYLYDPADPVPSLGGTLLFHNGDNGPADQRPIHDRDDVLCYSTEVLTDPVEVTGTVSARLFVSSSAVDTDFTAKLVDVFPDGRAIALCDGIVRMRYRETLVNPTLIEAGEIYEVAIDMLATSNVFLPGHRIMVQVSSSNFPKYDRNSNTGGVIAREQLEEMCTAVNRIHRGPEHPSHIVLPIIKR
Protocol: (§1) Further spectrophotometric analysis of cocaine stabilization was performed, by analyzing the ability of CocE to cleave 4-nitrophenyl acetate, after preincubation at 37° C. for various times, in the presence of various concentrations of cocaine.

CocE WT = molecular target: T2, CocE WT (Rhodococcus sp., UniProt Q9L9D7); assay: Inhibition of CocE WT aggregate formation, non-denaturing gel, 1 hour at 37° C.; parameters: species or system Rhodococcus sp. MB 1
T2 construct: 6xHis (C); made in house; host or cells: E. coli BL-21 Gold (DE3), pET-22b(+)
T2 sequence (Q9L9D7 1-574): T1 sequence (Q9L9D7 1-574)
From the text: To further study CocE stabilization with small molecules, other inhibitors of the CocE cleavage reaction were considered.

CocE [2] = molecular target: T1, CocE; format: biochemical, Rhodococcus sp. MB 1; conditions: cocaine: 62.5 and 125 μM; benzoic acid: higher concentrations
Protocol: CocE is also able to cleave another substrate, 4-nitrophenyl acetate (FIG. 3). Cleavage is monitored by detection of the appearance of the 4-nitrophenol reaction product, which absorbs at 400 nm.
as §1, with “cocaine. […] However, preincubation of CocE at the higher concentrations for various times at 37° C. indicated the enzyme was stabilized enough to be able to cleave the 4-nitrophenyl substrate (FIG. 5).” for “cocaine.”

[3] = Michaelis-Menten kinetics of cocaine hydrolysis (absorbance at 240 nm); format: biochemical
Protocol: (§2) The initial rates (of decay) were determined by following the change in the intrinsic absorbance of cocaine at 240 nm (6700 M^1 cm^1)(Xie et al., 1999) using a SpectraMax Plus 384 UV plate reader (Molecular Devices, Sunnyvale, Calif.) using SOFTmax Pro software (Version 3.1.2). The reaction was initiated by adding 100 μL of a 2× enzyme solution (100 mM phosphate buffer, pH 7.4 and 300 mM NaCl) to 100 μL of a 2× cocaine solution (50 μg/mL enzyme, 100 mM Phosphate Buffer, pH 7.4 and 300 mM NaCl). All assays were performed with 100 μM DTT unless indicated otherwise. Final cocaine concentrations were as follows: 125, 62.5, 31.25, 15.63, 7.81, 3.91, 1.95, and 0.977 μM. Vmax and Km values were calculated using Prism (GraphPad Software, San Diego). For stability measurements, wild type and mutant enzymes were diluted to 2× concentration and incubated at 37° C. for the times indicated. At the end of each time point, an aliquot was removed and kinetic behavior was observed as outlined above.
(§3) In vitro kinetic assays. […] Initial rates were then used to determine Michaelis-Menten parameters. To assess thermal stability, enzyme preparations were preincubated at 37° C. for various lengths of time, prior to measurement of residual activities (Table 1 and FIG. 23).
Determination of Catalytic Efficiency. To determine the catalytic activity a spectrophometric assay was performed. Samples of L169K/G173Q CocE were added to a 96-well UV permeable plate containing increasing cocaine concentrations (0.5, 2.5, 5, 12.5, 25, 50, 100, and 150 μM) to give a final concentration of 10 ng/ml CocE in a final volume of 200 μl. The change in absorbance at 240 nm was measured over 20 minutes, with readings every 10 seconds, by a SpectraMax Plus 384 UV plate reader (Molecular Devices, Sunnyvale, Calif.) using SOFTmax Pro software (Version 3.1.2). The change in absorbance was converted to the change in concentration and furthermore the rate of decay per mole enzyme is determined (Kcat). Kcat and Km of the enzyme are determined using Prism (GraphPad software, San Diego).

[4] = tested on: cocaine-induced lethality; assay: In vivo potency of protection against cocaine-induced lethality; parameters: species or system NIH-Swiss mice
[5] = Protocol: Analysis of CocE action on cocaine cleavage is performed by utilizing the spectroscopic properties of cocaine, which maximally absorbs light at a 240 nm wavelength. CocE activity is measured by monitoring for a decrease in signal at A240, using various concentrations of cocaine, and determining the initial rate of the decrease. From these values the Vmax of the enzyme can be determined. By pre-incubating the enzyme at 37° C. for various times before monitoring for activity, the half life of CocE at 37° C. can be calculated.
as §2, with “Final cocaine concentrations were as follows: 125, 62.5, 31.25, 15.63, 7.81, 3.91, 1.95, and 0.977 μM. Vmax and Km values were calculated using Prism (GraphPad Software, San Diego).” left out
as §3

[6] = tested on: cocaine-induced lethality; assay: In vivo duration of protection against cocaine-induced lethality; parameters: species or system NIH-Swiss mice
Protocol: In vivo protection against cocaine lethality. Male NIH-Swiss mice (25-32 g) were obtained from Harlan Inc. (Indianapolis, Ind.) and were housed in groups of 6 mice per cage. All mice were allowed ad libitum access to food and water, and were maintained on a 12-h light-dark cycle with lights on at 06.30 AM in a room kept at a temperature of 21-22° C. Experiments were performed in accordance with the Guide for the Care and Use of Laboratory Animals as adopted and promulgated by the National Institutes of Health. The experimental protocols were approved by the University Committee on the Use and Care of Animals at the University of Michigan.
Cocaine-induced toxicity was characterized by the occurrence of lethality, as defined by the cessation of observed movement and respiration. Mice were placed individually in Plexiglas observation chambers (16×28×20 cm high) to be habituated for 15 min before drug administration. Following intra-peritoneal (i.p.) cocaine administration, the mouse was immediately placed individually in the same chamber for observation. The presence or absence of lethality was recorded for 60 min following cocaine administration. The mouse was placed in a small restraint chamber (Outer tube diameter: 30 mm; Inner tube diameter: 24 mm) that left the tail exposed. The tail was cleansed with an alcohol wipe and a 30G1/2 precision glide needle (Fisher Scientific, Pittsburgh, Pa.) was inserted into one of the side veins for infusion. The i.v. injection volume of CocE or CocE mutant was 0.2 mL per mouse. Sterile gauze and pressure were applied to the injection site to staunch the bleeding.
Lethality was monitored following injection at 1, 5, 10, or 30 min, or 1, 2, 3, 4, 5 hours after enzyme administration. Each treatment used 8 mice to assess the percent of lethality (i.e., protection) in mice pretreated with a single dose of an esterase at a single time point.
These values were used to compare the degree of rightward shifts of cocaine's dose-response curve in the absence or presence of the enzyme pretreatment. In the time course study, a time point for duration of protection (i.e., 50% of lethality) was estimated by using each time course curve crossing 50% occurrence of lethality.
Evaluation of in vivo half life. CocE is administered IV to the tail vein in a volume of 0.2 ml. Animals are challenged with 180 mg/kg cocaine delivered intraperitoneally at a given time after CocE administration.

[7] = 1 mg i.v., cocaine 180 mg/kg i.p.

With `O=C(O)c1ccccc1` [benzoic acid] the “stabilization of CocE at 37° C., higher concentrations” value (CocE [1]; cocaine 62.5 and 125 μM, benzoic acid above 125 μM) was “stabilize”, the “stabilization of CocE at 37° C., lower concentrations” value (“stabilization … lower concentrations” below) (CocE [1]) was “did not reveal any stabilization” and the “inhibition of formation of CocE protein aggregates” value (CocE WT) was “inhibited the formation of aggregates”. For the same molecule, the “inhibition of 4-nitrophenyl acetate cleavage” value (CocE [2]) was “inhibit”.

In the case of `COC(=O)[C@@H]1[C@H]2CC[C@@H](C[C@@H]1O)N2C` [ecgonine methyl ester], the “stabilization … lower concentrations” value (CocE [1]) is reported as “did not reveal any stabilization” and the “inhibition of formation of CocE protein aggregates” value (CocE WT) is reported as “could not”.

In the case of `CC(=O)[O-].[Na+]` [sodium acetate], the “stabilization … lower concentrations” value (CocE [1]) is reported as “did not reveal any stabilization” and the “inhibition of formation of CocE protein aggregates” value (CocE WT) is reported as “could not”.

B1: T172R/G173Q: CocE double mutant (protein, listed as Rhodococcus sp.)
chain: T1 sequence (Q9L9D7 1-574) with T172R, G173Q
With B1 the “Kcat(mol · s^−1 · mol^−1)” value ([3]; cocaine) was 2247 mol · s^−1 · mol^−1, the “protection against cocaine-induced lethality” value ([4]; i.v. pretreatment 1 min prior to i.p. cocaine) was “protected” and the “Stability @ 37 (t1/2)” value [5] was about 5.43 h. The “half-life / τinact of activity at 37° C.” value [5] was 5.43 h, the “t1/2” value [5] was 5.43 h and the “plateau of catalytic activity, percent of maximal” value ([5]; 37° C., after greater than 8 hr / t=10 hours) was “approximately 35%”. The “extension of in vitro τinact at 37° C.” value ([5]; from 10 min) was “approximately 27 fold”, the “LT50, pretreatment time to 50% lethality” value [6, 7] was “up to 4.5 hr” and the “LT50, pretreatment time to 50% lethality” value ([6]; 1 mg i.v., cocaine 180 mg/kg i.p., listed as T172R-G173Q) was about 4.5 h. For the same molecule, the “extension of pretreatment duration with 50% protection” value ([6]; mouse, in vivo) was “greater than 20 fold”.

B2: L169K/G173Q: CocE double mutant, SEQ ID NO:1 with substitutions L169K and G173Q (protein, listed as Rhodococcus sp.)
chain: T1 sequence (Q9L9D7 1-574) with L169K, G173Q
In the case of B2, the “turnover per molecule of enzyme” value [3] is reported as “approximately 6000 molecules of cocaine per minute”, the “lowest dose maintaining some degree of protection” value ([4]; i.v., cocaine i.p. 1 min later) is reported as 0.01 mg and the “protection from increasing lethal doses of cocaine” value ([4]; i.v., cocaine i.p. 1 min later) is reported as “dose-dependently protected”. For the same molecule, the “time for which 50% of mice were protected from death” value [6, 7] was “up to 7.5 hrs”.
